The values below come from article PMC5240640.

For assay [1], the target named is His-tagged FcγRIIIa (R&D Systems, cat no. 4325-FC) (UniProt P08637).
Assay [2] has the same target. This is another data set of the same source.
Assay [3] addresses His-tagged FcγRI (R&D Systems, cat no. 1257-FC) (UniProt P12314). In words: AlphaScreen or HTRF; competitive: biotinylated human IgG1 (200 ng/mL) on streptavidin donor beads, His-tagged FcγR (200 ng/mL) on nickel chelate acceptor beads, unlabeled competitor antibody in serial dilutions; 1xPBS, 0.05% BSA, 0.01% Tween 20, pH 7.2; RT 1 h; IC50 interpolated at 50% maximal activity.
Assay [4] deals with His-tagged FcγRIIa (R&D Systems, cat no. 1330-CD/CF) (UniProt P12318). The description is as above.
Assay [5] has as its target His-tagged FcγRIIIa (R&D Systems, cat no. 4325-FC) (UniProt P08637). The assay is described as above.

As for “JNJ-61186372 - NF (EGFR x c-Met bispecific antibody, normal fucose)”, in assay [1], the ADCC against H1975 cells with donor PBMCs, EC20 (antibody concentration needed to elicit 20% lysis) was 0.15 nM and the ADCC against H1975 cells with donor PBMCs, Emax (% compared to complete lysis) was 40%. Further, in assay [2], the ADCC against HCC-827 cells with donor PBMCs, EC20 (antibody concentration needed to elicit 20% lysis) came out at 0.645 nM and the ADCC against HCC-827 cells with donor PBMCs, Emax (% compared to complete lysis) is 30%. The IC50 (commonly the point on the concentration scale where inhibition reaches its midpoint) in assay [3] was determined as 11.6 nM. Further, the IC50 in assay [4] amounted to 1080 nM. In assay [5], the IC50 was 38.1 nM.

In assay [1], “JNJ-61186372 - LF (EGFR x c-Met bispecific antibody, low fucose)” yielded an ADCC against H1975 cells with donor PBMCs, EC20 (antibody concentration needed to elicit 20% lysis) of 0.0015 nM and an ADCC against H1975 cells with donor PBMCs, Emax (% compared to complete lysis) of 59%. In assay [2], this substance displayed an ADCC against HCC-827 cells with donor PBMCs, EC20 (antibody concentration needed to elicit 20% lysis) of 0.0376 nM and an ADCC against HCC-827 cells with donor PBMCs, Emax (% compared to complete lysis) of 31%. This substance also returned an IC50 in assay [3] of 9.2 nM. The IC50 in assay [4] is 946 nM. The substance further came in with an IC50 in assay [5] of 10 nM.

Regarding IgG1 isotype - NF (antibody), the IC50 in assay [3] was 8.7 nM; in assay [4], 1270 nM; in assay [5] it was 32.4 nM.
